For experiment [1], the target named is T1, EG.5.1 rS (SARS-CoV-2 variant EG.5.1, UniProt P0DTC2 14-1273).
The target in experiment [2] is T2, FL.1.5.1 rS (SARS-CoV-2 variant FL.1.5.1, UniProt P0DTC2 14-1273).
Experiment [3] addresses T3, SARS-CoV-2 Omicron XBB.1.5 rS (SARS-CoV-2 variant XBB.1.5, UniProt P0DTC2 14-1273).
The target in experiment [4] is T4, XBB.2.3 rS (SARS-CoV-2 variant XBB.2.3, UniProt P0DTC2 14-1273).
The target in experiment [5] is T5, XBB.1.16 rS (SARS-CoV-2 variant XBB.1.16, UniProt P0DTC2 14-1273).
The target of experiment [6] is T6, XBB.1.16.6 rS (SARS-CoV-2 variant XBB.1.16.6, UniProt P0DTC2 14-1273).
Experiment [7] has as its target T1, EG.5.1 rS. As to the kind of experiment: ELISA: rS coated, mAb titrated, anti-mouse HRP. A general note: An ELISA detects its analyte on a solid surface through an enzyme-linked reagent.
The target in experiment [8] is T2, FL.1.5.1 rS. Description: ELISA: rS coated, mAb titrated, anti-mouse HRP.
Experiment [9] has as its target T3, SARS-CoV-2 Omicron XBB.1.5 rS. As to the kind of experiment: ELISA: rS coated, mAb titrated, anti-mouse HRP.
In experiment [10] the target is T4, XBB.2.3 rS. As to the kind of experiment: ELISA: rS coated, mAb titrated, anti-mouse HRP.
The target in experiment [11] is T5, XBB.1.16 rS. As to the kind of experiment: ELISA: rS coated, mAb titrated, anti-mouse HRP.
Experiment [12] has as its target T6, XBB.1.16.6 rS. As to the kind of experiment: ELISA: rS coated, mAb titrated, anti-mouse HRP.

Some results are limits rather than exact numbers.

B1: NVX.324.6 (antibody, V domains shown)
VH: EVQLQQSGPELGKPGTSMKISCKASGYSFTGYTMNWVKQSHGKNLEWIGLINPYNGGTSYNQKFKDKATLTVDKSSSTAYMELLSLTSEDSAVYYCVREHYYYDSGYGGYYAMDYWGQGTSVTVSS
VL: QIVLSQSPAILSASPGDKVTMTCRASASVNYMYWYQQKPGSSPKPWIYATSNLASGVPARFSGSGSGTSYSLTISRVEAEDAAIYYCQQWSSNPYTFGGGTKLEIK
notes: also called mAb NVX.324.6
As to B1, the IC50 in experiment [1], in experiment [2], in experiment [3], in experiment [4], in experiment [5] and in experiment [6] was greater than 3 µg/mL throughout. The EC50 turned out to be 0.018 µg/mL in experiment [7]; 0.014 µg/mL in experiment [8]; 0.03 µg/mL in [9]; 0.028 µg/mL in [10]; 0.027 µg/mL in experiment [11]; 0.021 µg/mL in experiment [12].

B2: NVX.62.12 (antibody, V domains shown)
VH: QVQLQQSGAELVRPGVSVKISCKGSGYTFTDYAMHWVKQSHAKSLEWIGVISTYSGDAYYNQKFKGKATVTVDKSSSTAYMELARLTSEDSAIYFCARNWDDYYAMDYWGQGTSVTVSS
VL: QIILSQSPAILSASPGERVTMTCRATSSVSYMHWYRQKPGSSPQPWIYATSNLASGVPARFSGSGSGTSYSLTISRVEAEDAATYYCQQWSGNPWTFGGGTKLEIK
notes: also called mAb NVX.62.12
On to B2, for which the IC50 in experiment [1], in experiment [2], in experiment [3], in experiment [4], in experiment [5] and in experiment [6] was greater than 3 µg/mL in each case. The EC50 in experiment [7] was 0.029 µg/mL; in experiment [8], 0.021 µg/mL; in experiment [9] it was 0.056 µg/mL; in experiment [10], 0.067 µg/mL; in experiment [11], 0.044 µg/mL; in [12] it was 0.063 µg/mL.

As usually defined, the IC50 is the point on the concentration scale where inhibition reaches its midpoint. One may read the EC50 as the concentration needed to bring the measured effect to its halfway point. Low values mean higher potency in that assay, high ones lower potency in that assay.

The values are drawn from patent US20250109187A1 (NOVAVAX, published 2025).
